According to publication doi:10.1101/429076 (bioRxiv, 2018):

T1: FANCL URD-RING fragment (FANCL^UR, residues 109-375) (human, UniProt Q9NW38 109-375)
T1 sequence (looked up): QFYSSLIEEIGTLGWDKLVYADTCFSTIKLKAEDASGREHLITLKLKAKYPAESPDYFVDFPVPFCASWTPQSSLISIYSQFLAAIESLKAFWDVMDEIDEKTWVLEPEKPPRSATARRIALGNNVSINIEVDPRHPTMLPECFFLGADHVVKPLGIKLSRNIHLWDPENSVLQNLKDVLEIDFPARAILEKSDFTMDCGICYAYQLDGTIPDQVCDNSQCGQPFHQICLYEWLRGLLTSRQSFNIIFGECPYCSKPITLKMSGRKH

B1: Ube2T wildtype (enzyme, human, UniProt Q9NPD8 1-197, looked up)
chain: MQRASRLKRELHMLATEPPPGITCWQDKDQMDDLRAQILGGANTPYEKGVFKLEVIIPERYPFEPPQIRFLTPIYHPNIDSAGRICLDVLKLPPKGAWRPSLNIATVLTSIQLLMSEPNPDDPLMADISSEFKYNKPAFLKNARQWTEKHARQKQKADEEEMLDNLPEAGDSRVHNSTQKRKASQLVGIEKKFHPDV
B2: Ube2T backside β1 double mutant (T23R+W25Q or TW/RQ) (enzyme, human, UniProt Q9NPD8 1-197, looked up)
chain: MQRASRLKRELHMLATEPPPGIRCQQDKDQMDDLRAQILGGANTPYEKGVFKLEVIIPERYPFEPPQIRFLTPIYHPNIDSAGRICLDVLKLPPKGAWRPSLNIATVLTSIQLLMSEPNPDDPLMADISSEFKYNKPAFLKNARQWTEKHARQKQKADEEEMLDNLPEAGDSRVHNSTQKRKASQLVGIEKKFHPDV

What was measured:
Experiment in all cases: ITC
[1] = target: T1, FANCL URD-RING fragment (FANCL^UR, …)
Ube2T wildtype = target: B1
[2] = target: B2

Kd [1] [nM] | dH [1] [kcal/mol] | Binder | other results
~119 | 6.46 | B1 | 
 |  | FANCL RING domain (FANCL^R, residues 289-375) (domain or fragment, human, UniProt Q9NW38 289-375, looked up) EIDFPARAILEKSDFTMDCGICYAYQLDGTIPDQVCDNSQCGQPFHQICLYEWLRGLLTSRQSFNIIFGECPYCSKPITLKMSGRKH | Kd (Ube2T wildtype): ~250 nM; binding result [2]: binds
~119 | -1.65 | Ube2T loop2-loop7 hybrid mutant (D32A, D33A, L92A or DDL/AAA) (enzyme, human, UniProt Q9NPD8 1-197, looked up) MQRASRLKRELHMLATEPPPGITCWQDKDQMAALRAQILGGANTPYEKGVFKLEVIIPERYPFEPPQIRFLTPIYHPNIDSAGRICLDVLKAPPKGAWRPSLNIATVLTSIQLLMSEPNPDDPLMADISSEFKYNKPAFLKNARQWTEKHARQKQKADEEEMLDNLPEAGDSRVHNSTQKRKASQLVGIEKKFHPDV | 
200 |  | B2 | 
 |  | Ube2T Glu54Arg (Ube2Tv1 variant with a permissive gate, E54R) (enzyme, human, UniProt Q9NPD8 1-197, looked up) MQRASRLKRELHMLATEPPPGITCWQDKDQMDDLRAQILGGANTPYEKGVFKLRVIIPERYPFEPPQIRFLTPIYHPNIDSAGRICLDVLKLPPKGAWRPSLNIATVLTSIQLLMSEPNPDDPLMADISSEFKYNKPAFLKNARQWTEKHARQKQKADEEEMLDNLPEAGDSRVHNSTQKRKASQLVGIEKKFHPDV | binding result [1]: binds
